Results taken from article PMC11061317 (Cell Research, 2024).
Ends that are not written are not given here.

What was measured:
[1] = biological target: T1, bacterially purified GST-tagged Rheb (UniProt Q15382 1-184); assay: pull-down; recombinant Rheb (1 ug) and biotinylated C-tail peptide at a 1:5 molar ratio in 300 uL NETN buffer (40 mM Tris-HCl, 100 mM NaCl, 0.5% NP-40, 1 mM EDTA, 10% glycerol) with 15 uL streptavidin beads, 2 h at 4 °C; SDS-PAGE and immunoblot; settings: both partners purified
T1 construct: Rheb, small G protein; The real-time BODIPY assays written under functional used His-tagged Rheb from E. coli instead of the GST-tagged protein; also called GST-Rheb; recombinant GST-tagged WT Rheb; source: E. coli BL21 (DE3), purified (Glutathione Sepharose 4B); not shown: GST, N-terminal, kept

[2] = biological target: T2, bacterially purified Rheb-G63V (UniProt Q15382 1-184, G63V); assay: as above; settings: both partners purified
T2 construct: source: E. coli BL21 (DE3), purified
T2 sequence (Q15382 whole entry G63V): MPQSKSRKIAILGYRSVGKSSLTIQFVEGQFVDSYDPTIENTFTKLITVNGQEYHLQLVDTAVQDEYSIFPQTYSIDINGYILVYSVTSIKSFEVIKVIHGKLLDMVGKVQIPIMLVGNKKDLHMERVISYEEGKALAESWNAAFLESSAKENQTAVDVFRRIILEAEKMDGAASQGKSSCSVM

T1 sequence (Q15382 whole entry): as the sequence (Q15382 whole entry G63V) above, with V63G counted along it

B1: biotinylated synthetic peptide of the ATP6AP1 C-tail (12) (peptide)
peptide: HKGPTISLTQIV
modifications: also: biotinylated, position not given here
notes: the last 12 residues of ATP6AP1; also called C12; synthetic C12 peptide; source: synthetic peptide (Genscript ProBio)
B1: binds [1].

B2: biotinylated synthetic peptide of the ATP6AP1 C-tail (30) (peptide)
peptide: TYGLHMILSLKTMDRFDDHKGPTISLTQIV
modifications: also: biotinylated, position not given here
notes: ATP6AP1 C-terminal 30 amino acids (C-tail), aa 441-470; also called synthetic C-tail peptide; WT C-tail peptide; source: synthetic peptide (Genscript ProBio)
B2: binds [2]; binds [1].
